Test results as given in US20240254204A1 (NATIONAL UNIVERSITY OF SINGAPORE, published 2024).
Positions count from the first letter of the chain named. Where “and” joins values, the source holds several entries; their conditions need not be identical. Equal values may be shown once.

B1: Antibody 11 (SS6V11-E7) (antibody, V domains shown)
VH: QVQLQESGPGLVKPSETLSLTCTVSGGFIGPHYWSWVRQPPGKGLEWIGYIYISGSTNYNPSLKSRLTISVDMSKSQFSLTLSSATAADTAVYYCARGGGYLETGPFEYWGQGTLVTVSS
VL: DIVMTQSPLSLPVTPGEPASISCRSSQSLLQNNGYNYLAWYLQKPGQSPQLLIYLSSTRASGVPDRFSGSGSGTDFTLKISRVEAEDVGVYYCMQSLQIPGTFGQGTRLEIK
B2: Antibody 13 (SS6V13-F1) (antibody, V domains shown)
VH: QVQLQESGPGLVKPSETLSLTCSVSGVSILGSYWGWIRQPPGTGLQWIGYIYFSENTNYNPSLQSRVTMSLDTSKNLLSLKLSSVTAADTAVYYCARGGGYLETGPFDSWGQGTLVTVSS
VL: B1 VL with S28G, L30V, N32S, S56G, T58N, S96G, I99T
B3: Antibody 20 (SS6V20-F5) (antibody, V domains shown)
VH: QVQLQESGPGLVKPSETLSLTCTVSGGSIIGYYWSWIRQPPGKGLEWIGYIYFSANTNYNPSLKSRVTMSVDMSKKQFSLKLRSVTAADTAVYYCARGGGYLETGPLDFWGQGILVTVSS
VL: B1 VL with L30M, N32L, K44R, S56G, S81T, S96G

molecular target: SARS-COV-2 Alpha full-length spike (SARS-CoV-2 Alpha); experiment: cell-based or functional assay

| Binder | pseudovirus neutralization NT50 |
| --- | --- |
| B1 | < 10 ng/ml and < 0.067 nM |
| B2 | < 10 ng/ml and < 0.067 nM |
| B3 | < 10 ng/ml and < 0.067 nM |

molecular target: SARS-COV-2 Delta full-length spike (SARS-CoV-2 Delta); experiment: cell-based or functional assay

| Binder | pseudovirus neutralization NT50 |
| --- | --- |
| B1 | < 10 ng/ml and < 0.067 nM |
| B2 | < 10 ng/ml and < 0.067 nM |
| B3 | < 10 ng/ml and < 0.067 nM |

molecular target: SARS-COV-2 Beta full-length spike (SARS-CoV-2 Beta); experiment: cell-based or functional assay

| Binder | pseudovirus neutralization NT50 |
| --- | --- |
| B1 | < 10 ng/ml and < 0.067 nM |
| B2 | < 10 ng/ml and < 0.067 nM |
| B3 | < 10 ng/ml and < 0.067 nM |

molecular target: SARS-COV-2 Gamma full-length spike (SARS-CoV-2 Gamma); experiment: cell-based or functional assay

| Binder | pseudovirus neutralization NT50 |
| --- | --- |
| B1 | < 10 ng/ml and < 0.067 nM |
| B2 | < 10 ng/ml and < 0.067 nM |
| B3 | < 10 ng/ml and < 0.067 nM |
